The values below come from publication PMC10723421.

The series deals with T1, CLAMP (recombinant full-length) (UniProt Q9V9N4 1-561).
T1 sequence: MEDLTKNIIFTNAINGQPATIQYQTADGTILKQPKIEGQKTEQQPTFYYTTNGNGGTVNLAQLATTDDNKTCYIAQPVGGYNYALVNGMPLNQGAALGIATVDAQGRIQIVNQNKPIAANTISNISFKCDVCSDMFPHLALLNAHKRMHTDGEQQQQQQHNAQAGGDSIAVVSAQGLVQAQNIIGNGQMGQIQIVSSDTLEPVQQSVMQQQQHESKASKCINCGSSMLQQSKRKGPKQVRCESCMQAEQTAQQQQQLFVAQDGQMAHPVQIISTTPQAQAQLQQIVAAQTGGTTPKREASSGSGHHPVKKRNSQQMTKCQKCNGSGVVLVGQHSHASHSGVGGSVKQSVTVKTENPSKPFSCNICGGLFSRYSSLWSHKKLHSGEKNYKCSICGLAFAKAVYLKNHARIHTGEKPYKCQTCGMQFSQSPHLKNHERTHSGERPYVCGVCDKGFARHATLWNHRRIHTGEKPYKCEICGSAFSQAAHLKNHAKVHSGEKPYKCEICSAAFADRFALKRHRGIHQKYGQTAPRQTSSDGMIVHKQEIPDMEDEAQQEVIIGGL
In words: EMSA.

B1: GA del H3/H4p probe, biotin (198 bp) (dsDNA)
DNA 1: CACAGCACGAAAGTCACTAAAGAACTAATTTCAACGTTTCTGTGTGCCCCTATTTATAGGTAAAACGACAAAAACCCTACGAACGATATGTTCGTTCGCTTTTCGCTCGTCAAATGAAATGGCCTCTGTTTTTTCACCGTCCACGATTGCTATATAAGTAGGTAGCAAATGCTCTGATCGTTTATTGTGTTTTCAAAC
DNA 2: GTTTGAAAACACAATAAACGATCAGAGCATTTGCTACCTACTTATATAGCAATCGTGGACGGTGAAAAAACAGAGGCCATTTCATTTGACGAGCGAAAAGCGAACGAACATATCGTTCGTAGGGTTTTTGTCGTTTTACCTATAAATAGGGGCACACAGAAACGTTGAAATTAGTTCTTTAGTGACTTTCGTGCTGTG
For the molecule B1, the binding result is “no binding”.
